# Measured values from patent publication US9902783B2, “Antibodies and pharmaceutical compositions containing same useful for inhibiting activity of metalloproteins” (Yeda Research and Development Co. Ltd., priority 2007, dated 2018).
# B1: 13E11: monoclonal antibody, IgG2b, raised against the hapten CoTCPP (antibody, V domains shown)
# VH: EGGGLVQPGGSRKLSCAASGFTFTSFGMHWVRQAPEKGLEWVAYISSGNEIIYYADTVKGRFTISRDNPKNTLFLQMTSLRSEDTAMYYCARNYYRYGFYVMDYWGQG
# VL: EIVVTQSPAILSASPGEKVTMTCRASSSVSYMHWYQQKPGSSPKPWIYATSNELASGVPARFSGSGSGTSYSLTISRVEAEDAATYYCQQWISNPLTFGAG
# modifications: 13E11 mAb heavy chain; 13E11 mAb light chain
# notes: monoclonal antibody, IgG2b, raised against the hapten CoTCPP
# B2: 6C6: monoclonal antibody, IgG2a, raised against the hapten Imisdp; MMP-2 and MMP-9 inhibitory; SEQ ID NO: 1 (protein)
# chain: CMETTQTPLSLPVSLGDQASISCRSSQSIVHSNGNTFLEWYLQKPGQSPKLLIYKVSNCRFSGVPDRFSGSGSGTDFTLKISRVEAEDLGVYYCFQASHVPPTFGGG
# modifications: 6c6 mAb light chain
# Tests used:
# [1] = target: MMP-2 (Mus musculus, UniProt P33434); test: kinetic assay with fluorogenic peptide substrate, MMP-2; type: biochemical, human
# [2] = target: Heme group within Hemoglobin (Homo sapiens, UniProt P68871+P69905); test: cross reactivity, competitive ELISA and immuno affinity assay, Hemoglobin; type: binding
# Description: (§1) The selectivity of anti CoTCPP and anti Imisdp was further challenged, by testing their cross reactivity with non related zinc dependent enzymes—Carbonic Anhydrase (CA) and brockii alcohol dehydrogenase (TbADH). Similar to active MMPs CA contains a zinc ion that is tetrahedraly coordinated to three histidine residues and a water molecule, TbADH contains a catalytic zinc ion that is tetraheadrally coordinated to four different amino acid residues, histidine, cysteine, aspartate and glutamate. […] Anti CoTCPP mAb was also tested for its cross reactivity with related physiological porphyrins such as the Heme group within Myoglobin and Hemoglobin and vitamin.
# [3] = cross reactivity, competitive ELISA and immuno affinity assay, vitamin; type: binding
# Description: as §1
# Carbonic anhydrase, and alcohol dehydrogenase all have rather buried active sites, similarly, the porphyrin moiety in Myoglobin and Hemoglobin is not exposed. Vitamin B 12 contains metal at the center of planer […] structure yet the axial ligands may interfere with the binding of the mAb.
# [4] = target: T1, active MMP-9 (Mus musculus, UniProt P41245); test: co-purification of active MMP-9 with mAb from mice ascites fluid (western blot); type: binding; settings: co-purified from mice ascites fluid, about 82 KDa band in western blot
# T1 construct: corresponding to active MMP9 lacking the pro-domain was identified; from tissue; host or cells: mouse ascites fluid
# Description: FIGS. 11A-11D are photographs and models illustrating that 6C6 binds only the active conformation of MMP9 and MMP2. FIG. 11A: Detection of active MMP9 that co-purified with 6C6 from mice ascites fluid. MAb (10 μg) purified from mice ascites fluid containing MMP9, was subjected to western blot (WB) analysis using commercial anti MMP9 antibody. Non related IgG mAb that has been purified in the same manner, served as negative control (MAb Control). Human ProMMP9 purified from Hilla transfected cells served as molecular weight marker to discern the active species. Purification was done by affinity chromatography using protein G beads which bind mAb via its constant domain, leaving the antigen binding site free to interact with the antigen. FIGS. 11B,C: 6C6 mAb immobilized to protein A beads was analyzed for its ability to pull down ProMMP2, ProMMP9, or MMP2 catalytic fragment (lacking the hemopexin and pro domains) from solution. […]
# Selected hybridomas were subcloned twice by limited dilutions, followed by large-scale production by ascites tumors primed with pristine (2,6,10,14 tetrametylpentadecane) injected BALB/c mice. […] The elution peak was analyzed by SDS-PAGE.
# Purified antibodies were separated in 8% SDS-polyacrylamide gel, transferred to NC membranes (Bio-Rad), and subsequently subjected to immunoblot analysis using anti MMP-9 antibody (Sigma). […] Signals were detected using ECL (Pierce).
# [5] = target: Pro-MMP-9 (Homo sapiens, UniProt P14780); type: binding
# [6] = target: T2, catalytic zinc ion of MMP9 (Homo sapiens, UniProt P14780); test: X-ray absorption spectroscopy of MMP9-6C6 complex; settings: zinc K edge XAS, MMP-9 catalytic domain-mAb complex
# T2 construct: lacking the hinge region and the hemopexin domain, Ala1-Gly424 |P14780|MMP9_HUMAN; made in house
# Description: FIG. 16 is a graph of results from X-ray absorption spectroscopy at the zinc K edge of active MMP9 (black) and inhibited MMP9-6C6 complex (red). The results are presented in the form of radial distribution from the zinc ion. The edge position the MMP-9 catalytic domain-mAb complex (red) shifts to a higher energy relative to active MMP-9 (inset) indicating binding to the catalytic zinc ion. […] Remarkably, this mode of binding is analogous to the binding of TIMPs at the active site of MMPs.
# In order to further study the differences between active MMP9 and an inhibited MMP9-6C6 complex, X ray absorption spectroscopy was performed. […] The data is presented in the form of Fourier transform (FT) spectra to provide the radial distribution of the various atoms within the first and second coordination shells of the catalytic zinc ion in MMP9. Apparent change in the radial distribution spectra of the free and inhibited enzyme can be observed above the noise level. These spectral changes indicate that the local environment of the catalytic zinc ion undergoes structural changes upon binding to 6C6. The observed deviation in both spatial distribution and peak intensities of the FT spectral features between the active and the inhibited enzyme indicate unequivocally that the local structure of the catalytic zinc changes upon mAb complex formation.
# T1 sequence (P41245 108-730): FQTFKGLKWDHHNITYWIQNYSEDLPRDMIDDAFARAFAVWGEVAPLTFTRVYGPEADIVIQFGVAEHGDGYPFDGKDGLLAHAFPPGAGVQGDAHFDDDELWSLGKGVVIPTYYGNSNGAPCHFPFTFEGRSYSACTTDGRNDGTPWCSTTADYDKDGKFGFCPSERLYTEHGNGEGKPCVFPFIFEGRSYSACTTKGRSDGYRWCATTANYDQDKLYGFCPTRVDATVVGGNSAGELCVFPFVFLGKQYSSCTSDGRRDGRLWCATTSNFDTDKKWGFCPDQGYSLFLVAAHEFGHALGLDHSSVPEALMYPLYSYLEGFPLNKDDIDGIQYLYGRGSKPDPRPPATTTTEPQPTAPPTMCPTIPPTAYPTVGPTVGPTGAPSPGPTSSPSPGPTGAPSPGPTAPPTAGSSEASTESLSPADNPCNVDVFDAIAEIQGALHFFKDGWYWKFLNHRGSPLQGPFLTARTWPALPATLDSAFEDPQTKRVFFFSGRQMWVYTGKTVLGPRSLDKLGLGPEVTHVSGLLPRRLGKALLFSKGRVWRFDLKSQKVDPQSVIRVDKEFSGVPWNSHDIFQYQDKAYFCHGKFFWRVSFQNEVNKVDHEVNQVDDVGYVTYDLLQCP
# Sequence of Pro-MMP-9 (P14780 20-707 limits assumed): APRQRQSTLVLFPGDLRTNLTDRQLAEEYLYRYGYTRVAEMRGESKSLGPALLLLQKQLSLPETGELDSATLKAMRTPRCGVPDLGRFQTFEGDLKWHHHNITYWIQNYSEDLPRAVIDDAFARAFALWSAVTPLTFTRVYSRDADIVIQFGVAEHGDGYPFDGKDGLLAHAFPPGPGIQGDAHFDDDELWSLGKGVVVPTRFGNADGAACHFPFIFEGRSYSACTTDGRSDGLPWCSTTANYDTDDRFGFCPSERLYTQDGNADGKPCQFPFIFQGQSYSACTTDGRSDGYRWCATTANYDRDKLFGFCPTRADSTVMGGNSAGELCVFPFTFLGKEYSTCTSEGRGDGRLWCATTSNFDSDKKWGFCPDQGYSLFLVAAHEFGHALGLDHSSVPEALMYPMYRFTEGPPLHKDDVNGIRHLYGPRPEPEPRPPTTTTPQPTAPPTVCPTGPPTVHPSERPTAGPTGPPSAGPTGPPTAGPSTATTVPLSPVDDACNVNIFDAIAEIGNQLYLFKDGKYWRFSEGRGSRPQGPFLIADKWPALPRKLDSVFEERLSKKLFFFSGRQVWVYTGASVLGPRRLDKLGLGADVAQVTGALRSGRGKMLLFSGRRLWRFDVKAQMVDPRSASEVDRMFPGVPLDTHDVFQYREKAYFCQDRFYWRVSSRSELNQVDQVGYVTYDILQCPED
# T2 sequence (P14780 94-444): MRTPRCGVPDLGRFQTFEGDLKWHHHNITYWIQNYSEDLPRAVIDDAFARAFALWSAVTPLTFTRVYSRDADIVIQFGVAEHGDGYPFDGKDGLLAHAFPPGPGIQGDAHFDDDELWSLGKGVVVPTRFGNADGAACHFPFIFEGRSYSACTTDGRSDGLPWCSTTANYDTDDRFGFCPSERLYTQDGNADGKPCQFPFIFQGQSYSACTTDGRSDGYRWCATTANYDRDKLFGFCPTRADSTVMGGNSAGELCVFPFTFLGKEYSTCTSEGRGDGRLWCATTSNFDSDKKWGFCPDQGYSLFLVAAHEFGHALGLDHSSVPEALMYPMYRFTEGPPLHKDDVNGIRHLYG
# Sequence of MMP-2 (P33434 110-467): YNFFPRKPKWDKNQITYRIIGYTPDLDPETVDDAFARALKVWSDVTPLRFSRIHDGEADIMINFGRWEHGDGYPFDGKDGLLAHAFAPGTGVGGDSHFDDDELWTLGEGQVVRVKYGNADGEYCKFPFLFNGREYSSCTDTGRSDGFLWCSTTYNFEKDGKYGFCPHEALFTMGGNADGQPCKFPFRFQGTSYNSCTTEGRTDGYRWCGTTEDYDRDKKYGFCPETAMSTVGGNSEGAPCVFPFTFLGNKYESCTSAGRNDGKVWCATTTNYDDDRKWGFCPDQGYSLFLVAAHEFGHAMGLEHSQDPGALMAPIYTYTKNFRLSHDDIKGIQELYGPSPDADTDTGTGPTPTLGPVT
# Sequence of Heme group within Hemoglobin (P69905 2-142 limits assumed): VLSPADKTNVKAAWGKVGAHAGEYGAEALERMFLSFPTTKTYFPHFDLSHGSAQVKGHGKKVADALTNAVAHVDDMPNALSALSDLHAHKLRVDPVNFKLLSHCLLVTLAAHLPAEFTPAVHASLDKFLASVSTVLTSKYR
# Sequence of Heme group within Hemoglobin (P68871 2-147 limits assumed): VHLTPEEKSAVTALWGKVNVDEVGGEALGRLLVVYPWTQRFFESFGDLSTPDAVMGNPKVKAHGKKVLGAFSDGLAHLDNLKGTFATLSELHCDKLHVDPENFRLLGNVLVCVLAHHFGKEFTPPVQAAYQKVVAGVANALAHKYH
Molecule,mode of inhibition of MMP-2 [1],cross reactivity with Hemoglobin [2],cross reactivity with vitamin [3],in vivo complex with active MMP-9 [4],binding to Pro-MMP-9 [5],binding mode at the catalytic zinc ion [6]
B1,competitive inhibitor,No cross was detected,No cross was detected,–,–,–
B2,–,–,–,formed a specific in vivo complex,did not bind,directly binds the zinc ion
